Test results from patent US20140235820A1, “METHODS AND COMPOSITIONS FOR MODULATING THE Wnt PATHWAY” (Genentech, Inc., priority 2010, published 2014).
Residue numbers refer to the chain shown, from its start. Numbers in names are those of the source.

T1: human LRP6 construct E1E2 (amino acids A20-E631) (human, UniProt O75581 20-631, biotinylated for biolayer interferometry)
T1 construct: range 20-631; also called LRP6 E1E2
T1 sequence (looked up): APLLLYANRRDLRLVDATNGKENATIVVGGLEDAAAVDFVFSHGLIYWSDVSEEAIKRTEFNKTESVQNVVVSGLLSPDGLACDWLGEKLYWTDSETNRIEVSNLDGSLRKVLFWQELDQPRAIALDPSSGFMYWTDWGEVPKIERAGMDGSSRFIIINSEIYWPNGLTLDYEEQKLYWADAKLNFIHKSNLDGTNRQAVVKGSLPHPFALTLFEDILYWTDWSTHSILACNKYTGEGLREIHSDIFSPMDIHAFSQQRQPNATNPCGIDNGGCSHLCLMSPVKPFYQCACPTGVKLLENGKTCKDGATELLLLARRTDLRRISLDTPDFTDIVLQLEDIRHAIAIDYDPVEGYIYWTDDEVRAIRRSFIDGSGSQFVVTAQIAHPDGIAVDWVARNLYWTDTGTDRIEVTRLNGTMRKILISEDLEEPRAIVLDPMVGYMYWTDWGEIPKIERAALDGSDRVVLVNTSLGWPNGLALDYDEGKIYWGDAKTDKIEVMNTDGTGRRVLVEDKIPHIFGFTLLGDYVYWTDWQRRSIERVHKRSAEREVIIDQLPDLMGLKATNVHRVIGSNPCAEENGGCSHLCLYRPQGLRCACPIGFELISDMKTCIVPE

T2: LRP6 E1E2 (Homo sapiens, UniProt O75581)
T2 construct: construct E1E2-amino acids A20-E631 of LPR6; made in house; host or cells: Tni insect cells (baculovirus, secreted)
T2 sequence (O75581 20-631): T1 sequence (looked up)

T3: LRP6 E3E4 (Homo sapiens, UniProt O75581)
T3 construct: construct E3E4 amino acids E631-Q1253 of LPR6; made in house; host or cells: Tni insect cells (baculovirus, secreted)
T3 sequence (O75581 631-1253): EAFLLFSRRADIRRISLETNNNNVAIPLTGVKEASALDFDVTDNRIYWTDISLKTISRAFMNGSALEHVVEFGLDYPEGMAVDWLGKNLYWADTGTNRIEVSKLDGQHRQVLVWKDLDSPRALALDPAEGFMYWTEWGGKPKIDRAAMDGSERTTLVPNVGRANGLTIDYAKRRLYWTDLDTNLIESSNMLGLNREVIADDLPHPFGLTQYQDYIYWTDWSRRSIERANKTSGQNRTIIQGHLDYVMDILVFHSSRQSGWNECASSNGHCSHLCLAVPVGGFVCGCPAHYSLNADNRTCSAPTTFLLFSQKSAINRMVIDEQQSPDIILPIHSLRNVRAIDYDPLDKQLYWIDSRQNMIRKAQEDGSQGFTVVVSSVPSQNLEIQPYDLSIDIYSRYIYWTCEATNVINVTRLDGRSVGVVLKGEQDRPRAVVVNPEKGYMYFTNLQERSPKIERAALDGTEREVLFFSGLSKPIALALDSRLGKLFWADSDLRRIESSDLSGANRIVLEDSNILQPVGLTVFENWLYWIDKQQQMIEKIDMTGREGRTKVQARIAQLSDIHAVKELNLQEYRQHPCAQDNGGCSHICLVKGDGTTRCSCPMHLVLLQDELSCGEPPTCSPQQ

T4: LRP6 E1E4 (Homo sapiens, UniProt O75581)
T4 construct: construct E1E4-amino acids A20-Q1253 of LPR6; made in house; host or cells: Tni insect cells (baculovirus, secreted)
T4 sequence (O75581 20-1253): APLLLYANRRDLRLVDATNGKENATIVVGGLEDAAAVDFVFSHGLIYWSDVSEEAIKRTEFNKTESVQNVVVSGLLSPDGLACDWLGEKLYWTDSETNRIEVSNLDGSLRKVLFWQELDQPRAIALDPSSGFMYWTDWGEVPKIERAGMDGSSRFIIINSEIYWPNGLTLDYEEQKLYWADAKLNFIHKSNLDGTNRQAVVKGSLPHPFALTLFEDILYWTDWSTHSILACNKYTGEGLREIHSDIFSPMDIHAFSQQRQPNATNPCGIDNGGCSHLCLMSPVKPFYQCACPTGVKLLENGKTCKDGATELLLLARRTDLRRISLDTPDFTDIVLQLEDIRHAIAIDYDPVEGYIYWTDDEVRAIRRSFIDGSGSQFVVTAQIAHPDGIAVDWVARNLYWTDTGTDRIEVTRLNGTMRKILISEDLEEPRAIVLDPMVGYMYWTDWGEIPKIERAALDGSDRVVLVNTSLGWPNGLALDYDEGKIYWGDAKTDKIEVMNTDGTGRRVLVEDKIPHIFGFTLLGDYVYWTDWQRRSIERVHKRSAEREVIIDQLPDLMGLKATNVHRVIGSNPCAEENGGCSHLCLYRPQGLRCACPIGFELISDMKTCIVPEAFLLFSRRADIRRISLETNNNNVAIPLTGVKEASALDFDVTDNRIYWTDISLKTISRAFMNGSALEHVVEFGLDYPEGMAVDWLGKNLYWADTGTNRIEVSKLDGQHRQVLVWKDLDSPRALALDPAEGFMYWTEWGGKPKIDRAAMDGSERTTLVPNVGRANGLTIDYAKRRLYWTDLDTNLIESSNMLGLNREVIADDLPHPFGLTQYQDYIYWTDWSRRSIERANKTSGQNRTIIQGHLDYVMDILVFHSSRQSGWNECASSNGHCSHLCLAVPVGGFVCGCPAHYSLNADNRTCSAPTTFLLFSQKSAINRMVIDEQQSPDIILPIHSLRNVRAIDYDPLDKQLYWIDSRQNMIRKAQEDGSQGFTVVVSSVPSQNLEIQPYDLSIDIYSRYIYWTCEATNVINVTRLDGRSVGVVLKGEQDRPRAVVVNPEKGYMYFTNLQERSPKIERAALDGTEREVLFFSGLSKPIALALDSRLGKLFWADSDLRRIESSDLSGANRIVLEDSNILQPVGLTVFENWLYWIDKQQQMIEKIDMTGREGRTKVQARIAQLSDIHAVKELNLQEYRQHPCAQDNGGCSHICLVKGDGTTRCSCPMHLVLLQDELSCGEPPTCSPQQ

B1: Sclerostin Asn117Ala (ligand, UniProt Q9BQB4 24-213, looked up)
chain: QGWQAFKNDATEIIPELGEYPEPPPELENNKTMNRAENGGRPPHHPFETKDVSEYSCRELHFTRYVTDGPCRSAKPVTELVCSGQCGPARLLPAAIGRGKWWRPSGPDFRCIPDRYRAQRVQLLCPGGEAPRARKVRLVASCKCKRLTRFHNQSELKDFGTEAARPQKGRKPRPRARSAKANQAELENAY
notes: also called sclerostin N117A
B2: Sclerostin Ile119Glu (ligand, UniProt Q9BQB4 24-213, looked up)
chain: B1 chain with A94N, I96E
notes: also called sclerostin I119E
B3: Dkk4: Dickkopf 4, carrier-free protein from R&D Systems (protein, UniProt Q9UBT3 19-224, looked up)
Dickkopf-related protein 4: LVLDFNNIRSSADLHGARKGSQCLSDTDCNTRKFCLQPRDEKPFCATCRGLRRRCQRDAMCCPGTLCVNDVCTTMEDATPILERQLDEQDGTHAEGTTGHPVQENQPKRKPSIKKSQGRKGQEGESCLRTFDCGPGLCCARHFWTKICKPVLLEGQVCSRRGHKDTAQAPEIFQRCDCGPGLLCRSQLTSNRQHARLRVCQKIEKL
B4: Dkk1 Asn40Ala (ligand, human, UniProt O94907 32-266, looked up)
chain: TLNSVLNSAAIKNLPPPLGGAAGHPGSAVSAAPGILYPGGNKYQTIDNYQPYPCAEDEECGTDEYCASPTRGGDAGVQICLACRKRRKRCMRHAMCCPGNYCKNGICVSSDQNHFRGEIEETITESFGNDHSTLDGYSRRTTLSSKMYHTKGQEGSVCLRSSDCASGLCCARHFWSKICKPVLKEGQVCTKHRRKGSHGLEIFQRCYCGEGLSCRIQKDHHQASNSSRLHTCQRH
notes: also called Dkk1 N40A

Key:
[1] = molecular target: T1, human LRP6 construct E1E2 (amino acids …); assay: BLI affinity
Procedure: (§1) Binding kinetics were measured by biolayer interferometry using an Octet Red instrument (ForteBio) as previously described (11). Streptavidin (SA) biosensors were loaded with biotinylated hLRP6 in 50 mMTris, pH 8, 300 mM NaCl, 5% (v/v) glycerol, and 0.05% (w/v) Triton X-100. The loaded biosensors were washed in the same buffer before carrying out association and dissociation measurements for the indicated times. The Kd of each interaction was determined using steady state-analysis through the Octet Red software v6.3. Each reported value represents an average of three or more experiments at different concentrations, with a fitted experimental curve for which the square of the correlation coefficient (R²) is above 0.96.

[2] = test system: Wnt1-dependent signaling; assay: Wnt-dependent TOPbrite luciferase reporter assay, cells transfected with Wnt1; assay type: cell-based; conditions: cells stably transfected with reporter, transiently with Wnt1
Procedure: FIG. 12. Induction of a Wnt/β-catenin reporter in the presence or absence of wild-type and mutant inhibitors. Cells were transfected by Wnt1 (binds to LRP6 E1E2). Dkk1 and sclerostin variants, or the control inhibitor Fz8 CRD, were used at the indicated doses.
Wnt signaling was assessed either in mouse fibroblast L-cells or in HEK293s cells. The luciferase reporter assay in 293 cells was performed as described (52). The mouse fibroblast L-cell imaging assay was conducted essentially as described(53). Cells were treated with Wnt3a, Fz8 CRD ((US Patent Publication 20080299136; (54), LRP6, or Dkk1, or combinations of these proteins, as indicated and processed after an additional 6 h at 37° C./5% CO2.
To test whether the observed effects on binding between purified proteins were relevant to cellular signaling, Dkk1 and sclerostin activities were tested further in a Wnt-dependent TOPbrite luciferase reporter assay (52). Cells stably transfected with reporter were transfected transiently with Wnt1. The Wnt-transfected cells were treated with purified Dkk1 or sclerostin variants, and the effect on reporter induction was measured (FIG. 12). […] This is consistent with earlier observations that Wnt1 belongs to a class of Wnts signaling through the E1E2 portion of to LRP5/6 (11, 52). The Dkk1 and sclerostin mutants show activities consistent with their binding to LRP6 (FIG. 12). Sclerostin Ile119Glu (“NXI” motif) is impaired relative to wild-type in its ability to inhibit Wnt1-driven signaling, as is Dkk1 Ile42Glu.

[3] = molecular target: T2, LRP6 E1E2; assay: Biolayer interferometry binding to LRP6 E1E2
Procedure: as §1, with “(R^2)” for “(R²)”
(§2) The interaction of the different Dkks and sclerostin with various domains of LRP6 was measured using a biolayer interferometry assay (11). Purified receptors contained individual β-propeller-EGF-like units (E1, E2, or E4), two β-propellers (E1E2 or E3E4), or four β-propellers (E1E4))—as follows:
(§3) Human LRP6: construct E1E4-amino acids A20-Q1253 of LPR6; construct E1E2-amino acids A20-E631 of LPR6; construct E3E4 amino acids E631-Q1253 of LPR6; construct E1-amino acids A20-D325 of LPR6; construct E2-amino acids […]-E631 of LPR6; construct E4-T933-Q1253. The individual LRP6 β-propeller E3 could not be expressed.

[4] = molecular target: T3, LRP6 E3E4; assay: Biolayer interferometry binding to LRP6 E3E4
Procedure: as §1, with “(R^2)” for “(R²)”
as §2, §3

[5] = molecular target: T4, LRP6 E1E4; assay: Biolayer interferometry binding to LRP6 E1E4
Procedure: as §1, with “(R^2)” for “(R²)”
as §2, §3

Molecule	fold loss in affinity against wild-type sclerostin [1] [fold]	inhibition of Wnt1-dependent signaling (reporter induction) [2]	binding to LRP6 E1E2 (in words) [3]	binding to LRP6 E3E4 (in words) [4]	binding to LRP6 E1E4 (in words) [5]	fold loss in affinity against wild-type Dkk1 [1] [fold]
B1	14	–	–	–	–	–
B2	19	impaired	–	–	–	–
B3	–	–	did not bind	very weak binding	very weak binding	–
B4	–	–	affect binding	not to E3E4	retain binding	75
